Patent publication US20230381333A1 (HANMI PHARM, published 2023)
Bridge positions count the residues as written; N and C are the ends. Square brackets hold non-standard residues; d marks the D form. Ends that are not written are not given here. * marks the point of attachment. Acetyl(2-(4-imidazolyl)) = O=C(Cc1c[nH]cn1)*; Aib = CC(C)(N)C(=O)O

biological target: human GLP-1 receptor (human, UniProt P43220 24-463); experiment: cell-based or functional assay

Going from H[Aib]QGTFTSDYSKYLDEKRQKEFVQWLLNTC (bridge 16-20) [triple agonist of SEQ ID NO: 51] to H[Aib]QGTFTSDYSKYLDEKRQKEFVNWLLAQKC (bridge 16-20) [triple agonist of SEQ ID NO: 34], the “In vitro activity compared to native-type peptide (%), vs GLP-1” value (shortened to “In vitro activity … (%), vs GLP-1”) rises from 14.4% to 19.1%.

First: H[Aib]QGTFTSDVSSYLLGQQQKEFIAWLVKGGGPSSGAPPPSC [triple agonist of SEQ ID NO: 5]
Second: Y[Aib]QGTFTSDYSKYLDEKRAKEFVQWLLDHHPSSGQPPPSC (bridge 16-20) [triple agonist of SEQ ID NO: 42]
The “In vitro activity … (%), vs GLP-1” value of the first is higher: 42.1% for the first, 33.9% for the second.

Compared with H[Aib]QGTFTSDYSIAMDEIHQKDFVNWLLNTC (bridge 16-20) [triple agonist of SEQ ID NO: 57], H[Aib]QGTFTSDKSKYLDECAAQDFVQWLLDGGPSSGAPPPS [triple agonist of SEQ ID NO: 41] is higher in “In vitro activity … (%), vs GLP-1” value: 11.7% for the first, 34.3% for the second.

Compared with Y[Aib]QGTFTSDYSKYLDEKRAKEFVQWLLDHHCSSGQPPPS (bridge 16-20) [triple agonist of SEQ ID NO: 43], H[Aib]QGTFTSDYSKYLDECRQKEFVQWLLNGGPSSGAPPPSG (bridge 16-20) [triple agonist of SEQ ID NO: 37] is higher in “In vitro activity … (%), vs GLP-1” value: 12.6% for the first, 236% for the second.

First: H[Aib]QGTFTSDKSKYLDERACQDFVQWLLDGGPSSGAPPPS [triple agonist of SEQ ID NO: 40]
Second: {Acetyl(2-(4-imidazolyl))}-[Aib]QGTFTSDYSICMDEKHQKDFVNWLLNTK (bridge 15-19) [triple agonist of SEQ ID NO: 59]
The “In vitro activity … (%), vs GLP-1” value of the first is higher: 75.2% for the first, 40.3% for the second.

Compared with [Acetyl(2-(4-imidazolyl))][Aib]QGTFTSDKSSYLDERAAQDFVQWLLDGGPSSGAPPPSS [triple agonist of SEQ ID NO: 38], [Acetyl(2-(4-imidazolyl))][Aib]QGTFTSDYSICMDEIHQKDFVNWLLNTK (bridge 16-20) [triple agonist of SEQ ID NO: 49] is higher in “In vitro activity … (%), vs GLP-1” value: 2.3% for the first, 29.8% for the second.

Compared with HGQGTFTSDCSKQLDGQAAQEFVAWLLAGGPSSGAPPPS [triple agonist of SEQ ID NO: 44], HGQGTFTSDCSKYLDGQRAQEFVAWLLAGGPSSGAPPPS [triple agonist of SEQ ID NO: 47] is higher in “In vitro activity … (%), vs GLP-1” value: 1.3% for the first, 2.4% for the second.

In the case of HGQGTFTSDCSKYMDGQAAQDFVAWLLAGGPSSGAPPPS [triple agonist of SEQ ID NO: 45], the “In vitro activity … (%), vs GLP-1” value is reported as 6.6%.

biological target: human GCG receptor (human, UniProt P47871 26-477); experiment: cell-based or functional assay
Sequence (P47871 26-477): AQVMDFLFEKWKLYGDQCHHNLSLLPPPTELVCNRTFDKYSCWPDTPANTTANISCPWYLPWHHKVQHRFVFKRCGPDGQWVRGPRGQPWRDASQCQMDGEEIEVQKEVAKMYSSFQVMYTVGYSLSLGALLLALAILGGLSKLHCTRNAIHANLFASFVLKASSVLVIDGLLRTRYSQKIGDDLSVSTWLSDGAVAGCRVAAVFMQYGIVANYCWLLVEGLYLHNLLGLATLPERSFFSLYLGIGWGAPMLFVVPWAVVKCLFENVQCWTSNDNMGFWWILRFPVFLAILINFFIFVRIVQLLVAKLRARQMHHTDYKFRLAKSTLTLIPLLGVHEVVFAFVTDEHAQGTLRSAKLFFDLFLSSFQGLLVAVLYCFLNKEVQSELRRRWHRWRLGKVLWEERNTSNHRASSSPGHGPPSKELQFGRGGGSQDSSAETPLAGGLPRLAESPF

Compared with H[Aib]QGTFTSDYSKYLDEKRQKEFVQWLLNTC (bridge 16-20) [triple agonist of SEQ ID NO: 51], H[Aib]QGTFTSDYSKYLDEKRQKEFVNWLLAQKC (bridge 16-20) [triple agonist of SEQ ID NO: 34] is lower in “In vitro activity compared to native-type peptide (%), vs Glucagon” value (“In vitro activity … (%), vs Glucagon” below): 2% for the first, 0.92% for the second.

Compared with H[Aib]QGTFTSDVSSYLLGQQQKEFIAWLVKGGGPSSGAPPPSC [triple agonist of SEQ ID NO: 5], Y[Aib]QGTFTSDYSKYLDEKRAKEFVQWLLDHHPSSGQPPPSC (bridge 16-20) [triple agonist of SEQ ID NO: 42] is higher in “In vitro activity … (%), vs Glucagon” value: less than 0.1% for the first, 206% for the second.

H[Aib]QGTFTSDYSIAMDEIHQKDFVNWLLNTC (bridge 16-20) [triple agonist of SEQ ID NO: 57] and H[Aib]QGTFTSDKSKYLDECAAQDFVQWLLDGGPSSGAPPPS [triple agonist of SEQ ID NO: 41] cannot be ordered by “In vitro activity … (%), vs Glucagon” value: less than 0.1% for the first, less than 0.1% for the second.

Compared with Y[Aib]QGTFTSDYSKYLDEKRAKEFVQWLLDHHCSSGQPPPS (bridge 16-20) [triple agonist of SEQ ID NO: 43], H[Aib]QGTFTSDYSKYLDECRQKEFVQWLLNGGPSSGAPPPSG (bridge 16-20) [triple agonist of SEQ ID NO: 37] is lower in “In vitro activity … (%), vs Glucagon” value: 88.4% for the first, 6.21% for the second.

H[Aib]QGTFTSDKSKYLDERACQDFVQWLLDGGPSSGAPPPS [triple agonist of SEQ ID NO: 40] and {Acetyl(2-(4-imidazolyl))}-[Aib]QGTFTSDYSICMDEKHQKDFVNWLLNTK (bridge 15-19) [triple agonist of SEQ ID NO: 59] cannot be ordered by “In vitro activity … (%), vs Glucagon” value: less than 0.1% for the first, less than 0.1% for the second.

[Acetyl(2-(4-imidazolyl))][Aib]QGTFTSDYSICMDEIHQKDFVNWLLNTK (bridge 16-20) [triple agonist of SEQ ID NO: 49] and HGQGTFTSDCSKQLDGQAAQEFVAWLLAGGPSSGAPPPS [triple agonist of SEQ ID NO: 44] cannot be ordered by “In vitro activity … (%), vs Glucagon” value: less than 0.1% for the first, less than 0.1% for the second.

HGQGTFTSDCSKYLDGQRAQEFVAWLLAGGPSSGAPPPS [triple agonist of SEQ ID NO: 47] and HGQGTFTSDCSKYMDGQAAQDFVAWLLAGGPSSGAPPPS [triple agonist of SEQ ID NO: 45] cannot be ordered by “In vitro activity … (%), vs Glucagon” value: less than 0.1% for the first, less than 0.1% for the second.

biological target: T1, human GIP receptor (human, UniProt P48546 22-466); experiment: cell-based or functional assay
T1 sequence (looked up): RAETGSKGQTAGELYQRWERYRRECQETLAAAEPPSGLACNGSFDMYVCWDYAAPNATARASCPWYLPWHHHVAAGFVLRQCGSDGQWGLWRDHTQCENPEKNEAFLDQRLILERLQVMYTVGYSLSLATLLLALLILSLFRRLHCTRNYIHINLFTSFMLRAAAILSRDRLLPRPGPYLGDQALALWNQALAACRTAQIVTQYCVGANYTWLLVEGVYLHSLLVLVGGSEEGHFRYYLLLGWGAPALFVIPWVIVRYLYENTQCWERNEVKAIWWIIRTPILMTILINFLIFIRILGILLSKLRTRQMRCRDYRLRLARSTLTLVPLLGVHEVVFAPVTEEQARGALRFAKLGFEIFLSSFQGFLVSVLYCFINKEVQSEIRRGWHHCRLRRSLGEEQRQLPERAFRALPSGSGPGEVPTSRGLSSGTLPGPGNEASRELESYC

Going from H[Aib]QGTFTSDYSKYLDEKRQKEFVQWLLNTC (bridge 16-20) [triple agonist of SEQ ID NO: 51] to H[Aib]QGTFTSDYSKYLDEKRQKEFVNWLLAQKC (bridge 16-20) [triple agonist of SEQ ID NO: 34], the “In vitro activity compared to native-type peptide (%), vs GIP” value (“In vitro activity … (%), vs GIP” below) rises from 0.1% to 0.6%.

Compared with H[Aib]QGTFTSDVSSYLLGQQQKEFIAWLVKGGGPSSGAPPPSC [triple agonist of SEQ ID NO: 5], Y[Aib]QGTFTSDYSKYLDEKRAKEFVQWLLDHHPSSGQPPPSC (bridge 16-20) [triple agonist of SEQ ID NO: 42] is higher in “In vitro activity … (%), vs GIP” value: less than 0.1% for the first, 7.8% for the second.

Compared with H[Aib]QGTFTSDYSIAMDEIHQKDFVNWLLNTC (bridge 16-20) [triple agonist of SEQ ID NO: 57], H[Aib]QGTFTSDKSKYLDECAAQDFVQWLLDGGPSSGAPPPS [triple agonist of SEQ ID NO: 41] is lower in “In vitro activity … (%), vs GIP” value: 0.3% for the first, less than 0.1% for the second.

First: Y[Aib]QGTFTSDYSKYLDEKRAKEFVQWLLDHHCSSGQPPPS (bridge 16-20) [triple agonist of SEQ ID NO: 43]
Second: H[Aib]QGTFTSDYSKYLDECRQKEFVQWLLNGGPSSGAPPPSG (bridge 16-20) [triple agonist of SEQ ID NO: 37]
The “In vitro activity … (%), vs GIP” value of the first is higher: 3.7% for the first, 2.2% for the second.

First: H[Aib]QGTFTSDKSKYLDERACQDFVQWLLDGGPSSGAPPPS [triple agonist of SEQ ID NO: 40]
Second: {Acetyl(2-(4-imidazolyl))}-[Aib]QGTFTSDYSICMDEKHQKDFVNWLLNTK (bridge 15-19) [triple agonist of SEQ ID NO: 59]
The “In vitro activity … (%), vs GIP” value of the first is lower: less than 0.1% for the first, 4% for the second.

Compared with [Acetyl(2-(4-imidazolyl))][Aib]QGTFTSDYSICMDEIHQKDFVNWLLNTK (bridge 16-20) [triple agonist of SEQ ID NO: 49], HGQGTFTSDCSKQLDGQAAQEFVAWLLAGGPSSGAPPPS [triple agonist of SEQ ID NO: 44] is lower in “In vitro activity … (%), vs GIP” value: 3.3% for the first, less than 0.1% for the second.

HGQGTFTSDCSKYLDGQRAQEFVAWLLAGGPSSGAPPPS [triple agonist of SEQ ID NO: 47] and HGQGTFTSDCSKYMDGQAAQDFVAWLLAGGPSSGAPPPS [triple agonist of SEQ ID NO: 45] cannot be ordered by “In vitro activity … (%), vs GIP” value: less than 0.1% for the first, less than 0.1% for the second.
